The results in this text go back to publication PMC8637272.

In this series the test system is enolase (ENO) (Mycoplasma gallisepticum S6). Put plainly: EMSA. To be noted: EMSA: 20 mM carbonate buffer pH 9.8, 6% glycerol, 2.5 pmol FAM-DNA, 10 min 37 C, 6% acrylamide gel at 10 C. AFM: 20 mM Tris-HCl pH 7.5 (Methods; Fig 6 legend …).

pKd: −log10 of the molar value.

Consider Peno, for which, for the setting “Hill n 3.1 +/- 0.6”, the pKd is 6.00.

For Pgapd, the pKd (Hill n 2.7 +/- 0.8) is 5.96.
